{"source": "patent US20220017612A1", "about": "(TILOS THERAPEUTICS, published 2022)", "key": {"[1]": {"target": "T1, fusion protein of a human IgG1 Fc domain and human LAP-TGFβ1 (human, UniProt P01137 30-390)", "T1 construct": "printed both as Fc-huB1 and LAP-TGFβ-Fc; also called Fc-huB1; Fc-human LAP", "T1 sequence (P01137 30-390 limits assumed)": "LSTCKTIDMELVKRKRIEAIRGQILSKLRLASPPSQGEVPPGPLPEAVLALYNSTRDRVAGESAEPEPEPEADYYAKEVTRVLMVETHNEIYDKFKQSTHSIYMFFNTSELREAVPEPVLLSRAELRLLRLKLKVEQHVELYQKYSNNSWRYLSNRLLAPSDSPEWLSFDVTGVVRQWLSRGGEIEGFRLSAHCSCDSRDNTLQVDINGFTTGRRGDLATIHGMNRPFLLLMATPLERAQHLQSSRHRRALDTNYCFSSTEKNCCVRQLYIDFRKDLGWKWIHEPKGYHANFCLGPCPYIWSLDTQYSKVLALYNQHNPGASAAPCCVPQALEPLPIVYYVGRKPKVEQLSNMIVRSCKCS", "experiment": "BLI, 2:1 model, component 1", "experimental": "(§1) The 20E6_H0.2aL1_IgG1 antibody was biotinylated using EZ-Link SulfoNHS-LC-Biotin (ThermoFisher). A streptavidin-functionalized tip was equilibrated in binding buffer (10 mM sodium phosphate, 150 mM sodium chloride, 1% (w/v) bovine serum albumin, 0.05% (w/v) sodium azide, pH 7.4) and dipped in a 10 μg/mL solution of biotinylated anti-LAP in binding buffer for 30 seconds to load the tip with antibody. The antibody-loaded tip was then washed in binding buffer and placed in a solution containing 0-24 nM of a fusion protein having a human IgG1 Fc domain fused to either human LAP-TGFβ1, human LAP-TGFβ2 or human LAP-TGFβ3. The antigen was allowed to bind to antibody for 5 minutes (association phase), and then the tip was moved to binding buffer (dissociation phase). The association and dissociation phases were fit to a 2:1 heterogenous ligand binding model to determine the binding rate constants. As shown in FIG. 21A and Table 17, 20E6_H0.2aL1_IgG1 bound with sub-nanomolar affinity to human LAP-TGFβ1, but not to human LAP-TGFβ2 (FIG. 21B) or LAP-TGFβ3 (FIG. 21C).\n(§2) The binding of 20E6_H0.2aL1_IgG1 antibody and 20E6_H0.2aL1_hIgG4mut antibody to LAP-TGFβ1 of various species was examined by bio-layer interferometry using the method described in Example 12, except that the antibody-loaded tip was placed in a solution containing 0-24 nM of a fusion protein having a human IgG1 Fc domain fused to either mouse, rat, cynomolgus monkey, or human LAP-TGFβ1."}, "[2]": {"target": "T2, fusion protein of a human IgG1 Fc domain and cynomolgus monkey LAP-TGFβ1 (human; cynomolgus monkey)", "T2 construct": "also called cynomolgus monkey LAP-TGFβ-Fc", "experiment": "BLI, 2:1 model, component 1", "experimental": "as §1, §2"}, "[3]": {"target": "T3, fusion protein of a human IgG1 Fc domain and rat LAP-TGFβ1 (human; rat, UniProt P17246 30-390, limits assumed)", "T3 construct": "also called rat LAP-TGFβ-Fc", "T3 sequence (P17246 30-390 limits assumed)": "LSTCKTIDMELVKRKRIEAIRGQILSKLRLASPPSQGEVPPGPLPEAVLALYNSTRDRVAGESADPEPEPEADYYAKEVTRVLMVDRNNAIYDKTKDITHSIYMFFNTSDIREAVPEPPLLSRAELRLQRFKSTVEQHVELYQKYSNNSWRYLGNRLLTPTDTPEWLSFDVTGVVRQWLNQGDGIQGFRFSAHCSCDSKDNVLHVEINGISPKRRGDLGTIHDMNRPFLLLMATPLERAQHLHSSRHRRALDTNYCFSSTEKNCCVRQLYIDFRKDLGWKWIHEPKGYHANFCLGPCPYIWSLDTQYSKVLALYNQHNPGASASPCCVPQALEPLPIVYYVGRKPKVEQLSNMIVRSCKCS", "experiment": "BLI, 2:1 model, component 1", "experimental": "as §1, §2"}, "[4]": {"target": "T4, fusion protein of a human IgG1 Fc domain and mouse LAP-TGFβ1 (human; mouse, UniProt P04202 30-390)", "T4 construct": "also called mouse LAP-TGFβ-Fc", "T4 sequence (P04202 30-390 limits assumed)": "as the sequence (P17246 30-390 limits assumed) above, with D93E, T99S, F131L, T134S, V202K counted along it", "experiment": "BLI, 2:1 model, component 1", "experimental": "as §1, §2"}, "[5]": {"target": "T1, fusion protein of a human IgG1 Fc …", "experiment": "BLI, 2:1 model, component 2", "experimental": "as §1, §2"}, "[6]": {"target": "T2, fusion protein of a human IgG1 Fc …", "experiment": "BLI, 2:1 model, component 2", "experimental": "as §1, §2"}, "[7]": {"target": "T3, fusion protein of a human IgG1 Fc …", "experiment": "BLI, 2:1 model, component 2", "experimental": "as §1, §2"}, "[8]": {"target": "T4, fusion protein of a human IgG1 Fc …", "experiment": "BLI, 2:1 model, component 2", "experimental": "as §1, §2"}, "[9]": {"target": "T5, human LAP-TGFβ1 overexpressed on cells (human, UniProt P01137 30-390)", "T5 construct": "HT1080 or P3U1 cells overexpressing wild-type human LAP-TGFβ1; also called HT1080-huB1; HT1080-hβ1", "T5 sequence (P01137 30-390)": "as the sequence (P01137 30-390 limits assumed) above", "experiment": "flow cytometry; black bar HT1080-huB1, grey bar HT1080", "experimental": "First, the ability of the humanized 20E6 candidates to bind to HT1080 cells overexpressing human TGFβ1 was tested by flow cytometry. HT1080 cells over-expressing human LAP-TGFβ1 were placed in a round-bottom 96-well plate at density of 40,000 cells/well. The cells were washed with FACS buffer (25 mM HEPES, 2 mM EDTA, 2% fetal bovine serum in Hank's Balanced Salt Solution). A volume (50 μL) of 1:200 diluted TruStain Human FcX (BioLegend) was added to each well, followed by 50 μL of 100 ng/μL of humanized 20E6 antibody construct. The antibody was allowed to bind for 20 minutes. The cells were washed twice with FACS buffer. The cells were labeled for 15 minutes with Alexa647-anti Human IgG (Jackson Immunoresearch), washed twice with FACS buffer, and analyzed by flow cytometry."}, "[10]": {"target": "T5, human LAP-TGFβ1 overexpressed on cells", "experiment": "flow cytometry; black bar HT1080-huB1, grey bar HT1080", "remark": "listed apart in the source"}, "[11]": {"target": "T5, human LAP-TGFβ1 overexpressed on cells", "experiment": "flow cytometry; black bar HT1080-huB1, grey bar HT1080-null"}}, "data": [{"binder": "20E6_H0.2aL1_hIgG4mut (antibody) heavy: not shown light: DIQMTQSPSSLSASVGDRVTITCRASQDITNYLNWYQQKPGKAVKLLIYYTSRLHSGVPSRFSGSGSGTDYTLTISSLQPEDFATYFCQQGDTLPWTFGQGTKLEIKRTVAAPSVFIFPPSDEQLKSGTASVVCLLNNFYPREAKVQWKVDNALQSGNSQESVTEQDSKDSTYSLSSTLTLSKADYEKHKVYACEVTHQGLSSPVTKSFNRGEC", "values": [{"measurement": "Kd", "setting": "[1]", "result": 10.7, "unit": "nM"}, {"measurement": "koff", "setting": "[1]", "result": 0.0303, "unit": "s⁻¹"}, {"measurement": "kon", "setting": "[1]", "result": "2.8e+06", "unit": "M⁻¹ s⁻¹"}, {"measurement": "Kd", "setting": "[2]", "result": 26.1, "unit": "nM"}, {"measurement": "koff", "setting": "[2]", "result": 0.0524, "unit": "s⁻¹"}, {"measurement": "kon", "setting": "[2]", "result": "2e+06", "unit": "M⁻¹ s⁻¹"}, {"measurement": "Kd", "setting": "[3]", "result": 11.1, "unit": "nM"}, {"measurement": "koff", "setting": "[3]", "result": 0.0406, "unit": "s⁻¹"}, {"measurement": "kon", "setting": "[3]", "result": "3.6e+06", "unit": "M⁻¹ s⁻¹"}, {"measurement": "Kd", "setting": "[4]", "result": 16.9, "unit": "nM"}, {"measurement": "koff", "setting": "[4]", "result": 0.0478, "unit": "s⁻¹"}, {"measurement": "kon", "setting": "[4]", "result": "2.8e+06", "unit": "M⁻¹ s⁻¹"}, {"measurement": "Kd", "setting": "[5]", "result": 0.51, "unit": "nM"}, {"measurement": "koff", "setting": "[5]", "result": 0.00036, "unit": "s⁻¹"}, {"measurement": "kon", "setting": "[5]", "result": 700000, "unit": "M⁻¹ s⁻¹"}, {"measurement": "Kd", "setting": "[6]", "result": 1.53, "unit": "nM"}, {"measurement": "koff", "setting": "[6]", "result": 0.00143, "unit": "s⁻¹"}, {"measurement": "kon", "setting": "[6]", "result": 940000, "unit": "M⁻¹ s⁻¹"}, {"measurement": "Kd", "setting": "[7]", "result": 0.51, "unit": "nM"}, {"measurement": "koff", "setting": "[7]", "result": 0.00087, "unit": "s⁻¹"}, {"measurement": "kon", "setting": "[7]", "result": "1.7e+06", "unit": "M⁻¹ s⁻¹"}, {"measurement": "Kd", "setting": "[8]", "result": 1.31, "unit": "nM"}, {"measurement": "koff", "setting": "[8]", "result": 0.0011, "unit": "s⁻¹"}, {"measurement": "kon", "setting": "[8]", "result": 840000, "unit": "M⁻¹ s⁻¹"}]}, {"binder": "H0L0 (antibody, human IgG1, kappa, V domains shown, also called 20E6_H0L0) VH: QVQLVQSGAEVKKPGASVKVSCKASGYTFTSYWMHWVRQAPGQGLEWMGRIDPNSGGIKYNEKFKSRVTMTRDTSISTAYMELSRLRSDDTAVYYCARWDYGGYFDVWGQGTLVTVSS VL: DIQMTQSPSSLSASVGDRVTITCRASQDITNYLNWYQQKPGKAPKLLIYYTSRLHSGVPSRFSGSGSGTDFTLTISSLQPEDFATYYCQQGDTLPWTFGQGTKLEIKR", "values": [{"measurement": "binding result", "setting": "[9]", "result": "no binding (tested: single dose, 50 µL of 100 ng/µL)"}]}, {"binder": "H2L0 (antibody, human IgG1, kappa, V domains shown, also called 20E6_H2L0) VH: QVQLVQSGAEVKKPGASVKVSCKASGYTFTSYWMHWVRQAPGQGLEWIGRIDPNSGGIKYNEKFKSRVTLTVDKSSSTAYMELSRLRSDDTAVYYCARWDYGGYFDVWGQGTLVTVSS VL: DIQMTQSPSSLSASVGDRVTITCRASQDITNYLNWYQQKPGKAPKLLIYYTSRLHSGVPSRFSGSGSGTDFTLTISSLQPEDFATYYCQQGDTLPWTFGQGTKLEIKR", "values": [{"measurement": "binding result", "setting": "[9]", "result": "no binding (tested: single dose, 50 µL of 100 ng/µL)"}]}, {"binder": "H3L0 (antibody, human IgG1, kappa, V domains shown, also called 20E6_H3L0) VH: QVQLVQSGAEVKKPGASVKVSCKASGYTFTSYWMHWVKQRPGQGLEWIGRIDPNSGGIKYNEKFKSKATLTVDKSSSTAYMELSRLRSDDTAVYYCARWDYGGYFDVWGQGTLVTVSS VL: DIQMTQSPSSLSASVGDRVTITCRASQDITNYLNWYQQKPGKAPKLLIYYTSRLHSGVPSRFSGSGSGTDFTLTISSLQPEDFATYYCQQGDTLPWTFGQGTKLEIKR", "values": [{"measurement": "binding result", "setting": "[9]", "result": "no binding (tested: single dose, 50 µL of 100 ng/µL)"}]}, {"binder": "H1L0 (antibody, human IgG1, kappa, V domains shown, also called 20E6_H1L0) VH: QVQLVQSGAEVKKPGASVKVSCKASGYTFTSYWMHWVRQAPGQGLEWIGRIDPNSGGIKYNEKFKSRVTLTVDTSISTAYMELSRLRSDDTAVYYCARWDYGGYFDVWGQGTLVTVSS VL: DIQMTQSPSSLSASVGDRVTITCRASQDITNYLNWYQQKPGKAPKLLIYYTSRLHSGVPSRFSGSGSGTDFTLTISSLQPEDFATYYCQQGDTLPWTFGQGTKLEIKR", "values": [{"measurement": "binding result", "setting": "[9]", "result": "no binding (tested: single dose, 50 µL of 100 ng/µL)"}]}, {"binder": "22F9_D102A (antibody, human IgG1, kappa, V domains shown, also called 22F9_H5L0 with VH D102A) VH: QVQLVQPGAEVVKPGASVKLSCKASGYTFTSYWMHWVKQRPGQGLEWIGMIHPNSGSTNYNEKFKSKATLTVDKSSSTAYMELSSLRSEDTAVYYCAYYDYAGFFDVWGQGTLVTVSS VL: DIQLTQSPSSLSASVGDRVTITCRASKSVSTSGYSYMHWYQQKPGKAPKLLIYLASNLESGVPSRFSGSGSGTDFTLTISSLQPEDFATYYCQHSRELPYTFGGGTKVEIKR", "values": [{"measurement": "binding result", "setting": "[10]", "result": "binds"}]}, {"binder": "22F9_N54Q (antibody, human IgG1, kappa, V domains shown, also called 22F9_H5L0 with VH N54Q) VH: QVQLVQPGAEVVKPGASVKLSCKASGYTFTSYWMHWVKQRPGQGLEWIGMIHPQSGSTNYNEKFKSKATLTVDKSSSTAYMELSSLRSEDTAVYYCAYYDYDGFFDVWGQGTLVTVSS VL: DIQLTQSPSSLSASVGDRVTITCRASKSVSTSGYSYMHWYQQKPGKAPKLLIYLASNLESGVPSRFSGSGSGTDFTLTISSLQPEDFATYYCQHSRELPYTFGGGTKVEIKR", "values": [{"measurement": "binding result", "setting": "[10]", "result": "binds"}]}, {"binder": "22F9_H5.2L0 (antibody, human IgG1, kappa, V domains shown, also called 22F9_H5L0 with the double N54Q/D102A mutation) VH: QVQLVQPGAEVVKPGASVKLSCKASGYTFTSYWMHWVKQRPGQGLEWIGMIHPQSGSTNYNEKFKSKATLTVDKSSSTAYMELSSLRSEDTAVYYCAYYDYAGFFDVWGQGTLVTVSS VL: DIQLTQSPSSLSASVGDRVTITCRASKSVSTSGYSYMHWYQQKPGKAPKLLIYLASNLESGVPSRFSGSGSGTDFTLTISSLQPEDFATYYCQHSRELPYTFGGGTKVEIKR", "values": [{"measurement": "binding result", "setting": "[10]", "result": "binds"}]}, {"binder": "22F9_H2.1 variant (antibody, human IgG1, kappa, V domains shown) VH: QVQLVQPGAEVVKPGASVKLSCKASGYTFTSYWMHWVKQRPGQGLEWIGMIHPQSGSTNYNEKFKSKATLTVDKSTSTAYMELSSLRSEDTAVYYCAYYDYAGFFDVWGQGTLVTVSS VL: DIQLTQSPSSLSASVGDRVTITCRASKSVSTSGYSYMHWYQQKPGKAPKLLIYLASNLESGVPSRFSGSGSGTDFTLTISSLQPEDFATYYCQHSRELPYTFGGGTKVEIKR", "values": [{"measurement": "binding result", "setting": "[11]", "result": "binds"}]}, {"binder": "22F9_H1.1 variant (antibody, human IgG1, kappa, V domains shown) VH: QVQLVQPGAEVVKPGASVKLSCKASGYTFTSYWMHWVKQRPGQGLEWIGMIHPQSGSTNYNEKFKSKATMTVDKSSSTVYMELSSLRSEDTAVYYCAYYDYAGFFDVWGQGTLVTVSS VL: DIQLTQSPSSLSASVGDRVTITCRASKSVSTSGYSYMHWYQQKPGKAPKLLIYLASNLESGVPSRFSGSGSGTDFTLTISSLQPEDFATYYCQHSRELPYTFGGGTKVEIKR", "values": [{"measurement": "binding result", "setting": "[11]", "result": "binds"}]}, {"binder": "22F9_H3.1 variant (antibody, human IgG1, kappa, V domains shown) VH: QVQLVQPGAEVVKPGASVKLSCKASGYTFTSYWMHWVRQAPGQGLEWIGMIHPQSGSTNYNEKFKSRVTLTVDKSSSTAYMELSSLRSEDTAVYYCAYYDYAGFFDVWGQGTLVTVSS VL: DIQLTQSPSSLSASVGDRVTITCRASKSVSTSGYSYMHWYQQKPGKAPKLLIYLASNLESGVPSRFSGSGSGTDFTLTISSLQPEDFATYYCQHSRELPYTFGGGTKVEIKR", "values": [{"measurement": "binding result", "setting": "[11]", "result": "binds"}]}]}
